Measured values taken from the supplement of paper PMC7125110.
± gives the standard error. This sample holds only a part of the variants without activity.

B1: glmS ribozyme (parent)
chain: AUAAAAGCGCCAGAACUACAGAAAUGUAGUUGACGAGGAGGAGGUUUAUCGAAUUUUCGGCGGAUGCCUCCAAA

How the values were obtained:
Conditions in all cases: with glucosamine-6-phosphate
glucosamine-6-phosphate [1] = variants of: B1; assay: self-cleavage kobs at 40 uM GlcN6P; higher = faster cleavage; RNA array
Procedure, shortened: (§1)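 Tiles bearing barcoded ribozyme variants, transcribed in situ by E. coli RNA polymerase on sequenced MiSeq chips, were imaged over ~14 h at 37 °C using a hybridised Cy3 probe. Glucosamine-6-phosphate was supplied at 40 μM to 10 mM in HEPES/KCl/Mg(OAc)2 buffer. kobs came from one- or two-exponential decay fits to normalised per-tile medians, and weighted Michaelis–Menten fits then provided kcat and KM.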

glucosamine-6-phosphate [2] = variants of: B1; assay: self-cleavage kobs at 160 uM GlcN6P; higher = faster cleavage; RNA array
Procedure, shortened: as §1

glucosamine-6-phosphate [3] = variants of: B1; assay: self-cleavage kobs at 640 uM GlcN6P; higher = faster cleavage; RNA array
Procedure, shortened: as §1

glucosamine-6-phosphate [4] = variants of: B1; assay: self-cleavage kobs at 2500 uM GlcN6P; higher = faster cleavage; RNA array
Procedure, shortened: as §1

glucosamine-6-phosphate [5] = variants of: B1; assay: self-cleavage kobs at 10000 uM GlcN6P; higher = faster cleavage; RNA array
Procedure, shortened: as §1

Row | Variant | self-cleavage kobs at 40 uM GlcN6P (glucosamine-6-phosphate [1]) [s⁻¹] | self-cleavage kobs at 160 uM GlcN6P (glucosamine-6-phosphate [2]) [s⁻¹] | self-cleavage kobs at 640 uM GlcN6P (glucosamine-6-phosphate [3]) [s⁻¹] | self-cleavage kobs at 2500 uM GlcN6P (glucosamine-6-phosphate [4]) [s⁻¹] | self-cleavage kobs at 10000 uM GlcN6P (glucosamine-6-phosphate [5]) [s⁻¹]
1 | G9C U45C U47A C67G | < 1e-05 |  |  |  | 
2 | G44C G51A | < 1e-05 | < 1e-05 | < 1e-05 | < 1e-05 | < 1e-05
3 | G13U U45G | < 1e-05 |  |  | 8.28e-05 ± 2e-05 | 0.000133 ± 1.8e-05
4 | G9C A14U G51A C70G | < 1e-05 |  |  |  | 
5 | G29A U55C | 0.000113 ± 2.5e-05 | 9.66e-05 ± 2.7e-05 | 0.00146 ± 0.00032 | 0.00194 ± 0.00056 | 0.00384 ± 0.00092
6 | G35C U65C | < 1e-05 | < 1e-05 | < 1e-05 | < 1e-05 | < 1e-05
7 | C8A A36U | < 1e-05 | < 1e-05 | < 1e-05 | < 1e-05 | < 1e-05
8 | A14C G38C G44A G63U C70G | < 1e-05 |  |  |  | 
9 | G44U C58U C71U | < 1e-05 |  | < 1e-05 | < 1e-05 | < 1e-05
10 | A14U U45G G62C | < 1e-05 |  |  |  | < 1e-05
11 | A33G G51A | < 1e-05 | < 1e-05 |  | < 1e-05 | < 1e-05
12 | A39C C61A | < 1e-05 | < 1e-05 | < 1e-05 | < 1e-05 | < 1e-05
13 | G66A C70G | 8.19e-05 ± 1.3e-05 | 7.92e-05 ± 2.2e-05 | 0.000305 ± 7.2e-05 | 0.000267 ± 7.7e-05 | 0.00273 ± 0.00055
14 | C8U G29C C50A | < 1e-05 |  | < 1e-05 |  | 
15 | C11G U31C C34G U46A | < 1e-05 |  |  |  | < 1e-05
16 | A14G A15G | 0.00218 ± 0.00029 | 0.0049 ± 0.0015 | 0.0134 ± 0.0029 | 0.0102 ± 0.0027 | 0.109 ± 0.035
17 | U45C U69G C71U | < 1e-05 |  |  |  | 
18 | A14G C70G | 9.61e-05 ± 1.2e-05 | 0.000203 ± 1.9e-05 | 0.000614 ± 0.00013 | 0.0009 ± 0.00022 | 
19 | A52G C61G | < 1e-05 |  |  |  | < 1e-05
20 | A33C A36G G62U G66A | < 1e-05 |  | < 1e-05 | < 1e-05 | 
21 | G7A G13U U69G C71A | 0.00031 ± 7.3e-05 |  |  |  | 0.000516 ± 0.00016
22 | C11U U30C A52C | < 1e-05 |  |  |  | 
23 | A6G A39G C68A C70G | < 1e-05 |  |  |  | 
24 | A33U C50G C71G | 0.000128 ± 2.3e-05 |  |  |  | 0.0002 ± 4.2e-05

Row | Variant | self-cleavage kobs at 40 uM GlcN6P (glucosamine-6-phosphate [1]) [s⁻¹] | self-cleavage kobs at 160 uM GlcN6P (glucosamine-6-phosphate [2]) [s⁻¹] | self-cleavage kobs at 640 uM GlcN6P (glucosamine-6-phosphate [3]) [s⁻¹] | self-cleavage kobs at 2500 uM GlcN6P (glucosamine-6-phosphate [4]) [s⁻¹] | self-cleavage kobs at 10000 uM GlcN6P (glucosamine-6-phosphate [5]) [s⁻¹]
25 | A53G C71U | 0.000921 ± 0.00014 | 0.0017 ± 0.00029 | 0.00661 ± 0.0013 |  | 0.0402 ± 0.013
26 | C8A G9A A33U | < 1e-05 |  |  |  | 
27 | G7C C50U | < 1e-05 | < 1e-05 | < 1e-05 | < 1e-05 | 
28 | G43U G63C | < 1e-05 | < 1e-05 | < 1e-05 | < 1e-05 | 
29 | G37C G62C | < 1e-05 |  | < 1e-05 |  | < 1e-05
30 | G7U U31C G59U | < 1e-05 |  |  |  | 
31 | G29U G37C A42U | < 1e-05 |  | < 1e-05 | < 1e-05 | 
32 | C8A C58U | < 1e-05 | < 1e-05 | < 1e-05 | < 1e-05 | < 1e-05
33 | G29C U45A C68G | < 1e-05 |  |  |  | < 1e-05
34 | A14G U30A A39G A53C | 9.97e-05 ± 2.6e-05 |  |  |  | 0.00799 ± 0.0023
35 | C8A G44C C70A | < 1e-05 |  |  |  | < 1e-05
36 | C10U A12G G32U A36U C70U | < 1e-05 |  |  |  | 
37 | G7C C11U C61A C70G | < 1e-05 |  |  | < 1e-05 | 
38 | C8A U31C G40A A42C U65A G66A | < 1e-05 |  |  |  | 
39 | G35U C67G C71A | < 1e-05 |  |  |  | 
40 | C10G U30A A42U G51A | < 1e-05 |  |  |  | 
41 | C61G U65C G66A | < 1e-05 |  |  |  | < 1e-05
42 | C16G A36C | < 1e-05 |  | < 1e-05 |  | < 1e-05
43 | A6C C50G C61G | 0.000119 ± 3.4e-05 | 0.000251 ± 7.8e-05 | 0.00102 ± 0.00025 | 0.000289 ± 0.0001 | 0.000343 ± 6.1e-05
44 | C10U G40U C58A | < 1e-05 |  |  | < 1e-05 | < 1e-05
45 | G35U G51A U54G | < 1e-05 |  |  |  | < 1e-05
46 | A12G G62U | < 1e-05 |  | < 1e-05 |  | 
47 | G60C C71G | < 1e-05 | < 1e-05 |  |  | < 1e-05
